Reference: US20170183388A1 (REGENTS OF THE UNIVERSITY OF COLORADO A BODY CORPORATE, published 2017)

Columns and labels:
BioPure recombinant Aβ42 [1] = molecular target: T1, BioPure recombinant Aβ42 (UniProt P05067 672-713); test: pull-down of whole brain synaptosome proteins on Aβ42 coupled to AminoLink resin, western blot [A]
T1 construct: domain: Aβ(1-42); Recombinant peptide from AmideBio, coupled to AminoLink resin or to SPR chips by EDC-NHS; For treating neurons the peptide came from R Peptide or AmideBio; also called Aβ(1-42); amyloid β
T1 sequence (P05067 672-713 limits assumed): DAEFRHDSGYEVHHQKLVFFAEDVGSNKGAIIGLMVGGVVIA

BioPure recombinant Aβ42 [2] = molecular target: T1, BioPure recombinant Aβ42; test: Aβ42 coupled to AminoLink resin, mouse whole brain synaptosome extract, western blot

| binding result (BioPure recombinant Aβ42 [1]) | binding result (BioPure recombinant Aβ42 [2]) | Binder |
| --- | --- | --- |
| no binding |  | Mouse synaptogyrin1 (endogenous, from brain synaptosomes) (other, UniProt O55100 1-234, looked up, SYP paralog, 22% identity as printed; also called SNG1; synaptogyrinl) MEGGAYGAGKAGGAFDPYTLVRQPHTILRVVSWVFSIVVFGSIVNEGYLNNPEEEEEFCIYNRNPNACSYGVTVGVLAFLTCLLYLALDVYFPQISSVKDRKKAVLSDIGVSAFWAFFWFVGFCFLANQWQVSKPKDNPLNEGTDAARAAIAFSFFSIFTWAGQAVLAFQRYQIGADSALFSQDYMDPSQDSSMPYAPYVEPSAGSDPAGMGGTYQHPANAFDAEPQGYQSQGY |
|  | binds | Mouse synaptophysin (endogenous, from brain synaptosomes or cultured neurons) (other, UniProt Q62277 1-314, looked up, Endogenous protein detected by western blot; also called SYP; Syp) MLLLADMDVVNQLVAGGQFRVVKEPLGFVKVLQWVFAIFAFATCGSYTGELRLSVECANKTESALNIEVEFEYPFRLHQVYFDAPSCVKGGTTKIFLVGDYSSSAEFFVTVAVFAFLYSMGALATYIFLQNKYRENNKGPMMDFLATAVFAFMWLVSSSAWAKGLSDVKMATDPENIIKEMPMCRQTGNTCKELRDPVTSGLNTSVVFGFLNLVLWVGNLWFVFKETGWAAPFMRAPPGAPEKQPAPGDAYGDAGYGQGPGGYGPQDSYGPQGGYQPDYGQPASGGGGGYGPQGDYGQQGYGQQGAPTSFSNQM |
| no binding |  | Mouse synaptoporin (endogenous, from brain synaptosomes) (other, UniProt Q8BGN8 1-265, looked up, SYP paralog, 62% identity as printed; also called SYNPR) MCMVIFAPLFAMFAFATCGGYSGGLRLSVDCVNKTESNLSIDIAFAYPFRLQQVTFEVPTCEGKEQQKLALVGDSSSSAEFFVTVAVFAFLYSLAATVVYIFFQNKYRENNRGPLIDFIVTVVFSFLWLVGSSAWAKGLSDVKVATDPKEVLLLMSACKQPSNKCMAVHSPVMSSLNTSVVFGFLNFILWAGNIWFVFKETGWHSSGQRYLSDPMEKHSSSYNQGRYNQESYGSSGGYSQQANLGPTSDEFGQQPSGPTSFNNQI |
| no binding |  | Mouse MAP2 (endogenous, from brain synaptosomes) (other, UniProt P20357 1-1828, looked up, Loading control; also called loading control) MADERKDEGKAPHWTSASLTEAAAHPHSPEMKDQGGAGEGLSRNANGFPYREEEEGAFGEHRSQGTYSDTKENGINGELTSADRETAEEVSARIVQVVTAEAVAVLKGEQEKEAQHKDQPAALPLAAEETANLPPSPPPSPASEQTATVEEDLLTASKMEFPEQEKFPSSFAEPLDKGEMEFKMPSKPGEDFEHAALVPDTSKTPQDKKDLQGMEGEKLPPVPFAQTFGTNLEDRKQSTEPSIVMPSIGLSAEPPAPKEPKDWFIEMPTESKKDEWGLAAPISPGPLTPMREKDVLEDIPRWEGKQFDSPMPSPFHGGSFTLPLDTMKNERVSEGPRPFAPVFFQSDDKVSLQDPSALATSKESSKDEEPLKDKADKVADVSISEVTTLLGNVHSPVVEGYVGENISGEVKVTTDQEKKETSAPSVQEPTLTETEPQTKLDEKSTVSIEEAVAKKEESFKLRDDKTGVIQTSTEQSFSKEDQKGQEHTIDELKQDSFPISLEQAVTDAAMTSKTLGKVTSEPEAVSERREIQGLFEEKTADKNKLEGAGSATIAEVEMPFYEDKSGMSKYFETSALKEDMTRSTELGSDYYELSDSRGSAQESLDTISPKNQHDEKELQAKASQPSPPAQEAGYSTLAQSYTPDHPSELPEEPSSPQERMFTIDPKVYGEKRDLHSKNKDDLTLSRSLGLGGRSAIEQRSMSINLPMSCLDSIALGFNFGRGHDLSPLASDILTNTSGSMDEGDDYLPPTTPAVEKMPCFPIESKEEEDKAEQAKVTGGQTIQVETSSESPFPAKEYYKNGTVMAPDLPEMLDLAGTRSRLASVSADAEVARRKSVPSEAMLAESSTSLPPVADESPVTVKPDSQLEDMGYCVFNKYTVPLPSPVQDSENLSGESGSFYEGTDDKVRRDLATDLSLIEVKLAAAGRVKDEFTAEKEASPPTSADKSRLSREFDHDRKANDKLDTVLEKSEEHIDSKEHAKESEEMGGKVELFGLGITYDQASTKELITTKDTSPEKTEKGLSSVPEVAEVEPTTKADQGLDFAATKAEPSQLDIKVSDFGQMASGMNVDAGKAIELKFEVAQELTLSSEAPQEADSFMGVESGHIKEGGKVNETEVKEKVTKPDLVHQEAVDKEESYESSGEHESLTMESLKPDEGKKETSPETSLIQDEVALKLSVEIPCPPPVSEADLSTDEKGEVQMEFIQLPKEESTETPDIPAIPSDVTQPQPEAIVSEPAEVPSEEEEIEAGGEYDKLLFRSDTLQISDLLVSESREEFVETCPGELKGVVESVVTIEDDFITVVQTTTDEGESGSHSVRFAAPAQPEEERRPRPHDEELEIEMAAEAQAEPKDGSPDAPATPEKEEVAFSEYKTETYDDYKDETTIDDSIMDADSLWVDTQDDDRSILTEQLETIPKEERAEKDARRPSLEKHRKEKPFKTGRGRISTPERKVAKKEPSTVSRDEVRRKKAVYKKAELAKKSEVQAHSPSRKLILKPAIKYTRPTHLSCVKRKTTAASGDLAQAPGAFKQAKDKVTDGISKSPEKRSSLPRPSSILPPRRGVSGDREENSFSLNSSISSARRTTRSEPIRRAGKSGTSTPTTPGSTAITPGTPPSYSSRTPGTPGTPSYPRTPGTPKSGILVPSEKKVAIIRTPPKSPATPKQLRLINQPLPDLKNVKSKIGSTDNIKYQPKGGQVQIVTKKIDLSHVTSKCGSLKNIRHRPGGGRVKIESVKLDFKEKAQAKVGSLDNAHHVPGGGNVKIDSQKLNFREHAKARVDHGAEIITQSPSRSSVASPRRLSNVSSSGSINLLESPQLATLAEDVTAALAKQGL |
